Assay results published in US20130236459A1 (MERRIMACK PHARMACEUTICALS, published 2013).
Changes are numbered by the printed parent chain. Read-outs that look alike come from different tables or passages of the source. Values belong to the binder of their own block, whether it stands above or below them.

Tests used:
[1] = target: T1, ErbB3 (HER3), endogenous on human tumor cell lines (human, UniProt P21860 20-1342); experiment: cell-based or functional assay
[2] = target: T2, IGF-1R (receptor for insulin-like growth factor 1), endogenous on human tumor cell lines (human, UniProt P08069 31-1367); experiment: cell-based or functional assay
[3] = target: T2, IGF-1R (receptor for insulin-like …); experiment: cell-based or functional assay; remark: listed apart in the source
[4] = target: T3, rat ErbB3-His (rat, UniProt Q62799 20-641, limits assumed); experiment: ELISA, species specific ErbB3-His coated plate
T3 construct: not shown: His tag, not further described for this species form
Protocol: (§1) 96-well Reacti-bind® plates (Pierce, Fisher cat. No. PI-I5041) are coated with 50 ul of species specific ErbB3-His or IGF-1R-His (R&D Systems, cat. No. 348-RB and 305-GR, respectively) at 2 ug/ml in PBS and incubated overnight at 4° C. The next day plates are washed with PBS+0.05% Tween-20 (PBS-T) and blocked for 1 hr. at room temperature with 100 ul of Protein-Free Blocking Buffer (Pierce). Plates are washed with PBS-T and 50 ul of each PBA is added in duplicate. Concentrations start at 500 nM (in PBS-T) and included ten additional two-fold dilutions and one blank (PBS-T only). Plates are incubated at room temperature for two hours and then washed with PBS-T. 50 ul of anti-Fc-HRP (Jackson Labs) is added at 1:40,000 in PBS-T, and plates are incubated in the dark for 1 hr. at room temperature. Plates are again washed with PBS-T and 100 ul of TMB substrate (Thermo Scientific, TMB and peroxide solution mixed 1:1) is added. The plates are incubated for 5-15 minutes at room temperature until a blue color develops, and the reaction is stopped with 100 ul of STOP solution (Cell Signaling Technology). The absorbance is read at 450 nm on a PerkinElmer Envision plate reader, and binding curves are generated using GraphPad Prism.

[5] = target: T4, mouse ErbB3-His (mouse, UniProt Q61526 20-641, limits assumed); experiment: ELISA, species specific ErbB3-His coated plate
T4 construct: not shown: His tag, not further described for this species form
Protocol: as §1

[6] = target: T1, ErbB3 (HER3), endogenous on human tumor …; experiment: cell-based or functional assay; remark: listed apart in the source
[7] = target: T2, IGF-1R (receptor for insulin-like …); experiment: cell-based or functional assay; remark: listed apart in the source
[8] = target: T1, ErbB3 (HER3), endogenous on human tumor …; experiment: cell-based or functional assay; remark: listed apart in the source
[9] = target: T2, IGF-1R (receptor for insulin-like …); experiment: cell-based or functional assay; remark: listed apart in the source
[10] = target: T5, mouse IGF-1R-His (mouse, UniProt Q60751 31-936, limits assumed); experiment: ELISA, species specific IGF-1R-His coated plate
T5 construct: not shown: His tag, not further described
Protocol: as §1

[11] = target: T6, rat IGF-1R-His (rat, UniProt P24062 31-936, limits assumed); experiment: ELISA, species specific IGF-1R-His coated plate
T6 construct: not shown: His tag, not further described
Protocol: as §1

[12] = target: T1, ErbB3 (HER3), endogenous on human tumor …; experiment: cell-based or functional assay; remark: listed apart in the source
[13] = target: T2, IGF-1R (receptor for insulin-like …); experiment: cell-based or functional assay; remark: listed apart in the source
[14] = target: T1, ErbB3 (HER3), endogenous on human tumor …; experiment: summary sentence of Example 3 (FACS on cells)
Protocol: (§2) 1×10⁵ MCF7 cells or 1×10⁵ ADRr cells are incubated at room temperature for 2 hours with each of ELI-7, ILE-10 and ILE-12, two anti-ErB3 antibodies and one anti-IGF-1R antibody at 2 uM, followed by 12 subsequent 3-fold dilutions. Then using goat anti-HSA-Alexa647 conjugated antibody as the detection antibody, cells are incubated on ice for 40 minutes. Cell binding dissociation constants (measures of binding affinities) of the antibodies on MCF7 and ADRr cells are assessed by FACS and apparent dissociation constants are determined for each protein. The following results were obtained (see also FIGS. 14A and 14B): […]

[15] = target: T2, IGF-1R (receptor for insulin-like …); experiment: summary sentence of Example 3 (FACS on cells)
Protocol: as §2

T2 sequence (P08069 31-1367): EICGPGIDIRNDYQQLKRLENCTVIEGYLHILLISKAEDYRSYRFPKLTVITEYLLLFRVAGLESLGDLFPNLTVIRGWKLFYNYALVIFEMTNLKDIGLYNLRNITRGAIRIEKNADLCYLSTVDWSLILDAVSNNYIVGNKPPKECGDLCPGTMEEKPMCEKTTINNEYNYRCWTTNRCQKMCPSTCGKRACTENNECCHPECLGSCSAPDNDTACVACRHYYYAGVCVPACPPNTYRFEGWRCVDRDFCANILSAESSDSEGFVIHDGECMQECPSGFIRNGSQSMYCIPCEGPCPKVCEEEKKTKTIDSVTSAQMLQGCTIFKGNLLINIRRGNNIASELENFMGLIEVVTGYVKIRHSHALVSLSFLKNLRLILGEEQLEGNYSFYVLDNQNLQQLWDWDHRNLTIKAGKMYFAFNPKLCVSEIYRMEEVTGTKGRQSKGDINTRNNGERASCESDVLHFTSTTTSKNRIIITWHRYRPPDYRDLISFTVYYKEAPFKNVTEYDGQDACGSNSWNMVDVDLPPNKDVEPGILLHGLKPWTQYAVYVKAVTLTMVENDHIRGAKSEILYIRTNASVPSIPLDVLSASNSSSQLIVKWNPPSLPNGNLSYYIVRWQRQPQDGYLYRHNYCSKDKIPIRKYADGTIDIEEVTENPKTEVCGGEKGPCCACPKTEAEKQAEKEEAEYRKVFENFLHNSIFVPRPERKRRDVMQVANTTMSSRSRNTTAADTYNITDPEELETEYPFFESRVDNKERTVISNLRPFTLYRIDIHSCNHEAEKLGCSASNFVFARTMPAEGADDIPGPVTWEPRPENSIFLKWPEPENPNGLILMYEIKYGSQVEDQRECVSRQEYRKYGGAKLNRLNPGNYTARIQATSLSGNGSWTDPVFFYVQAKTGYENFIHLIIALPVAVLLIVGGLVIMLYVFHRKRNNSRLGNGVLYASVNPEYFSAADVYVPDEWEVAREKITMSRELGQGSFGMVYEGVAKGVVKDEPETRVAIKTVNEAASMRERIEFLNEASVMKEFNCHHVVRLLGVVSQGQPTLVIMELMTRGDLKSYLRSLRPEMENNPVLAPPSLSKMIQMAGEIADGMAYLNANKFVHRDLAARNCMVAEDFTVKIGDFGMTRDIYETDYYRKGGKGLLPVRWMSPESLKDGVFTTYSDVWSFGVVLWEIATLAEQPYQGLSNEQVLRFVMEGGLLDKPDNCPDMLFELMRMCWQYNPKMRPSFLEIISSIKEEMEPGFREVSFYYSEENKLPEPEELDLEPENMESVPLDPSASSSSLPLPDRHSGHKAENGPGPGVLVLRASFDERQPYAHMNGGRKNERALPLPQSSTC
T1 sequence (P21860 20-1342 limits assumed): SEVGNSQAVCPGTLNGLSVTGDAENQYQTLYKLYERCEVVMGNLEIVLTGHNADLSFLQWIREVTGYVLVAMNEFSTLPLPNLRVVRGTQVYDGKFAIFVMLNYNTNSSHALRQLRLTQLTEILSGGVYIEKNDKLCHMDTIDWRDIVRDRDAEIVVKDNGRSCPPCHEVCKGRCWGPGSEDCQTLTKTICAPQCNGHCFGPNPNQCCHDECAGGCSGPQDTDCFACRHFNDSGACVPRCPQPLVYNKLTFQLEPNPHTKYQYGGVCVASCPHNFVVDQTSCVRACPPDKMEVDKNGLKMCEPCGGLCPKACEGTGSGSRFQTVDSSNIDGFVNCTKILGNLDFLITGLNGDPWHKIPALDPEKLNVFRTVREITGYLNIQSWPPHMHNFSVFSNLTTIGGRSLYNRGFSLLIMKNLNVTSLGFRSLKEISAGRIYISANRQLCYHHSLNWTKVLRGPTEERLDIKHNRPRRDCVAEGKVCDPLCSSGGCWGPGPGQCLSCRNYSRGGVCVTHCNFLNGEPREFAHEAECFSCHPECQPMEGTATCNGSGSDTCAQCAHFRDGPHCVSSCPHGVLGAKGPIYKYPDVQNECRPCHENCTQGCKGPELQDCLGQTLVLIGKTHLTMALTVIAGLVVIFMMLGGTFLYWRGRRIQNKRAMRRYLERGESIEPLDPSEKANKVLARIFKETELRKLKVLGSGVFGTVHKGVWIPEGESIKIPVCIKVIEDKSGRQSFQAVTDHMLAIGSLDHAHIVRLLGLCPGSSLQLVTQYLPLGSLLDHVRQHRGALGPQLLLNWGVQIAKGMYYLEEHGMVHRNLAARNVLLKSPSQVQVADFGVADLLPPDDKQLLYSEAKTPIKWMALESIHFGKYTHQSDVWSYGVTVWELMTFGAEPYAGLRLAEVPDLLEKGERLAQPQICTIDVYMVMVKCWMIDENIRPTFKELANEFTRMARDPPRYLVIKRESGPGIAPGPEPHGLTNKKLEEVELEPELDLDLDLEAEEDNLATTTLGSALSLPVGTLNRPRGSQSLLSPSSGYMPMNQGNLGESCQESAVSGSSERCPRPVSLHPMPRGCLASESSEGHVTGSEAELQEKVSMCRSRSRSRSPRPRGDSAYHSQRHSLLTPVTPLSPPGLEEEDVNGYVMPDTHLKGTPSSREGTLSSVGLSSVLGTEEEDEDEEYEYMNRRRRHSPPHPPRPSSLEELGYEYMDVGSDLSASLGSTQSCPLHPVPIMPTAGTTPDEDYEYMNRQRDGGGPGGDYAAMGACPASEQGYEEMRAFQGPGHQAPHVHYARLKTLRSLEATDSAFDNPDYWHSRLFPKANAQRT
T4 sequence (Q61526 20-641 limits assumed): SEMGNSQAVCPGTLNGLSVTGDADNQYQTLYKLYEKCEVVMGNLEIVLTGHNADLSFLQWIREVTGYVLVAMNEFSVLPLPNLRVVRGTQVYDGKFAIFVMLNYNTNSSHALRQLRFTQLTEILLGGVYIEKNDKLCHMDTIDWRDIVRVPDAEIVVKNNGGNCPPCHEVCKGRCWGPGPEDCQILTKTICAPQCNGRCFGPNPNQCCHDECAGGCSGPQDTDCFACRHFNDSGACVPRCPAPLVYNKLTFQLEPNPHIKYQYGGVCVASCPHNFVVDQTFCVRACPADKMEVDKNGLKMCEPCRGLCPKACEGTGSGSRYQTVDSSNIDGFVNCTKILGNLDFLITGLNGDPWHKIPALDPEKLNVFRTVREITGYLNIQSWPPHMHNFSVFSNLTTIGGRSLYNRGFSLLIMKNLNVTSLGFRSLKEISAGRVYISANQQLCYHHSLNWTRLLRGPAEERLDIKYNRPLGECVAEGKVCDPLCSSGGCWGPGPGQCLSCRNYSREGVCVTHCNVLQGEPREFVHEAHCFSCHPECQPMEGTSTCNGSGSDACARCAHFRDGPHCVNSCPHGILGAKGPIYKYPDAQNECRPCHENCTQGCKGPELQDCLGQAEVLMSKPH
T3 sequence (Q62799 20-641 limits assumed): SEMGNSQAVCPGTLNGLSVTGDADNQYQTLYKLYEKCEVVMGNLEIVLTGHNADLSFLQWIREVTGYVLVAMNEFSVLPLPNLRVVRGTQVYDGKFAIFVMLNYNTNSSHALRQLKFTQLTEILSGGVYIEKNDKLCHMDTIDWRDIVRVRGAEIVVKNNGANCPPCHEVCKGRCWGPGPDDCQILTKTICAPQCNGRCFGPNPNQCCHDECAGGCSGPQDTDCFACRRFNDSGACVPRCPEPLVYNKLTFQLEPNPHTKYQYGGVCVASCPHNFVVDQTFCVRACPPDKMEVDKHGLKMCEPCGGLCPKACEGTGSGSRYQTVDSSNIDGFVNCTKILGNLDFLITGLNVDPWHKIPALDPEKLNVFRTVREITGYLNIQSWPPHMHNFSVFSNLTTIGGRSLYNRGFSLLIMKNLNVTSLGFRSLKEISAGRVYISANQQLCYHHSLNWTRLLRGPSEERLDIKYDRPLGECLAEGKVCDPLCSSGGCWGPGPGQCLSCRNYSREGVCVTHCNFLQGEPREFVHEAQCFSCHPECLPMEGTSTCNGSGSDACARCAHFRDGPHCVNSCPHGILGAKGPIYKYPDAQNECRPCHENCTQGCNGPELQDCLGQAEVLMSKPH
T5 sequence (Q60751 31-936 limits assumed): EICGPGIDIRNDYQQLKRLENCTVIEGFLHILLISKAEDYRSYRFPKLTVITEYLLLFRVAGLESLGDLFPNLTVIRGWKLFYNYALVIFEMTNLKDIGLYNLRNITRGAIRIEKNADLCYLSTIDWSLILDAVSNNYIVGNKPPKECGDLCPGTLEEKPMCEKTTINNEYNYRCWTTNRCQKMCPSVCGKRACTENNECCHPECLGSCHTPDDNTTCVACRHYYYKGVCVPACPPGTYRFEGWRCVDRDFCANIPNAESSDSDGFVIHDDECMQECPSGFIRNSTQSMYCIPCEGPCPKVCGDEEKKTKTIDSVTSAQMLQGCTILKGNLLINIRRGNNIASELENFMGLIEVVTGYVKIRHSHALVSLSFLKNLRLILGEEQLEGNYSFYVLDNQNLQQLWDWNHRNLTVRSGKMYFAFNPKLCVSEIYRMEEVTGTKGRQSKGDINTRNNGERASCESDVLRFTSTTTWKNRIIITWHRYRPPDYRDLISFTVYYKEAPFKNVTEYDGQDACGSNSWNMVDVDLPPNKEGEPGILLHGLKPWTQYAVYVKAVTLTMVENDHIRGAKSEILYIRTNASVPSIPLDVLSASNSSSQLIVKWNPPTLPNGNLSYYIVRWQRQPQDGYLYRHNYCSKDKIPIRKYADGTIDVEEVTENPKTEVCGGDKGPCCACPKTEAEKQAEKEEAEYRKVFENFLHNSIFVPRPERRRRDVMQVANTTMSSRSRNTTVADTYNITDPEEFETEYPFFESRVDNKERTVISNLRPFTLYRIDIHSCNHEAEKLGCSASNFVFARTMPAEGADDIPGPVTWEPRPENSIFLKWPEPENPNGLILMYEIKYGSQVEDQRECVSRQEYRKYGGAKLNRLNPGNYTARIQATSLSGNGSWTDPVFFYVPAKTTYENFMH
T6 sequence (P24062 31-936 limits assumed): as the sequence (Q60751 31-936 limits assumed) above, with D271G, Y629F, M714L counted along it

pErbB3 IC50 (BxPC-3, HRG+IGF1) [1]: 3.7 nM
pIGF-1R IC50 (BxPC-3, HRG+IGF1) [2]: 10 nM
B1: ELI-7 (bispecific antibody, human IgG2, lambda)
heavy: EVQLLESGGGLVQPGGSLRLSCAASGFTFSAYNMRWVRQAPGKGLEWVSVIYPSGGATRYADSVKGRFTISRDNSKNTLYLQMNSLRAEDTAVYYCARGYYYYGMDVWGQGTLVTVSSASTKGPSVFPLAPCSRSTSESTAALGCLVKDYFPEPVTVSWNSGALTSGVHTFPAVLQSSGLYSLSSVVTVPSSNFGTQTYTCNVDHKPSNTKVDKTVERKCCVECPPCPAPPVAGPSVFLFPPKPKDTLMISRTPEVTCVVVDVSHEDPEVQFNWYVDGVEVHNAKTKPREEQFNSTFRVVSVLTVVHQDWLNGKEYKCKVSNKGLPAPIEKTISKTKGQPREPQVYTLPPSREEMTKNQVSLTCLVKGFYPSDIAVEWESNGQPENNYKTTPPMLDSDGSFFLYSKLTVDKSRWQQGNVFSCSVMHEALHNHYTQKSLSLSPGKGGGGSGGGGSGGGGSLQEVQLLESGGGLVQPGGSLRLSCAASGFTFSVYPMHWVRQAPGKGLEWVSSISSSGGATRYADSVKGRFTISRDNSKNTLYLQMNSLRAEDTAVYYCAKDFYDILTGNAFDIWGQGTMVTVSSASTGGGGSGGGGSGGGGSDIQMTQSPSSFSASTGDRVTITCRASQGISSYLAWYQQKPGKAPKLLIYAASTLQSGVPSRFSGSGSGTDFTLTISSLQPEDSATYYCQQYFTFPLTFGGGTKVEIK
light: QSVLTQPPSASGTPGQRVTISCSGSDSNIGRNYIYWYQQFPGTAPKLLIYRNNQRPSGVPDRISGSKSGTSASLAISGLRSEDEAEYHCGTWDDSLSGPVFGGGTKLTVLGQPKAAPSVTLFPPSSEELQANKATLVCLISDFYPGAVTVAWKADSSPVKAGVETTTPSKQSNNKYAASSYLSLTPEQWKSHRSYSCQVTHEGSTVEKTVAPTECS

% IGF1R Downregulation (A549, 24 h) [3]: 70%
% IGF1R Downregulation (BxPC-3, 24 h) [3]: 67%
binding result [4]: binds
binding result [5]: binds
pAKT IC50 (BxPC-3, HRG 20 ng/ml) [6]: 1.06e-10 M
pAKT IC50 (BxPC-3, HRG 200 ng/ml) [6]: 1.01e-10 M
pErbB3 IC50 (BxPC-3, HRG 20 ng/ml) [6]: 6.76e-11 M
pErbB3 IC50 (BxPC-3, HRG 200 ng/ml) [6]: 5.7e-11 M
pAKT IC50 (BxPC-3, IGF1 40 ng/ml) [7]: 3.8e-10 M
pAKT IC50 (BxPC-3, IGF1 400 ng/ml) [7]: 3.4e-10 M
pIGF1R IC50 (BxPC-3, IGF1 40 ng/ml) [7]: 1.1e-10 M
pIGF1R IC50 (BxPC-3, IGF1 400 ng/ml) [7]: 8.8e-11 M
pErbB3 IC50 (BxPC-3) [8]: 5.8e-07 M (inferred)
pIGF1R IC50 (BxPC-3) [9]: 1.3e-09 M (inferred)
binding result [10]: binds
binding result [11]: binds
pErbB3 % Inhibition (BxPC-3) [12]: 94%
pErbB3 IC50 (BxPC-3) [12]: 3.6e-11 M (inferred)
pIGF1R % Inhibition (BxPC-3) [13]: 91%
pIGF1R IC50 (BxPC-3) [13]: 1.3e-10 M (inferred)
B2: P4-G1-C8 (bispecific antibody, human IgG1, kappa)
heavy: not shown
light: DIQMTQSPSSLSASLGDRVTITCRASQGISSYLAWYQQKPGKAPKLLIYAKSTLQSGVPSRFSGSGSGTDFTLTISSLQPEDSATYYCQQYWTFPLTFGGGTKVEIKRTVAAPSVFIFPPSDEQLKSGTASVVCLLNNFYPREAKVQWKVDNALQSGNSQESVTEQDSKDSTYSLSSTLTLSKADYEKHKVYACEVTHQGLSSPVTKSFNRGEC
notes: IgG1-(scFv)2: anti-IGF-1R Fab, anti-ErbB3 scFv; also called P4-C8

binding result [14]: binds
binding result [15]: binds
B3: ILE-12 (bispecific antibody, human IgG2, kappa)
heavy: EVQLLESGGGLVQPGGSLRLSCAASGFTFSVYPMHWVRQAPGKGLEWVSSISSSGGATRYADSVKGRFTISRDNSKNTLYLQMNSLRAEDTAVYYCAKDFYDILTGNAFDIWGQGTMVTVSSASTKGPSVFPLAPCSRSTSESTAALGCLVKDYFPEPVTVSWNSGALTSGVHTFPAVLQSSGLYSLSSVVTVPSSNFGTQTYTCNVDHKPSNTKVDKTVERKCCVECPPCPAPPVAGPSVFLFPPKPKDTLMISRTPEVTCVVVDVSHEDPEVQFNWYVDGVEVHNAKTKPREEQFNSTFRVVSVLTVVHQDWLNGKEYKCKVSNKGLPAPIEKTISKTKGQPREPQVYTLPPSREEMTKNQVSLTCLVKGFYPSDIAVEWESNGQPENNYKTTPPMLDSDGSFFLYSKLTVDKSRWQQGNVFSCSVMHEALHNHYTQKSLSLSPGKGGGGSGGGGSGGGGSLQEVQLLESGGGLVQPGGSLRLSCAASGFTFSVYDMYWVRQAPGKGLEWVSYIYSSGGDTDYADSVKGRFTISRDNSKNTLYLQMNSLRAEDTATYYCARASTNSIYDAMDVWGQGTTVTVSSASTGGGGSGGGGSGGGGSDIQMTQSPSSVSASVGDRVTITCRASQDITNWLAWYQQKPGKAPTLLIYDASTLQSGVPSRFSGSGSGTDFTLTISSLQPEDFATYFCQQANGFPLTFGGGTKVEIK
light: B2 light with L11F, L15T, K51A, W92F
notes: anti-IGF-1R/anti-ErbB3 IgG2-(scFv)2: anti-IGF-1R IgG2 (module 5-7), anti-ErbB3 scFv (module 2-21)
